Broadly, the Kd is the free concentration of one partner at which half of the binding sites on the other are occupied at equilibrium, for simple one-to-one binding.

Results on one substance are retold here after patent US5981483A, “Compositions comprising modulators of cytokines of the TGF-β superfamily” (Mount Sinai Hospital Corporation, priority 1997, dated 1999).

The test system of one experiment is Mv1Lu cells. The experiment is described as follows: 3H-Thymidine incorporation in Mv1Lu cells: proliferation / growth. The format is cell-based, mink. To be noted: absence of cytokines, FIG. 12; read-out: IC50, stimulated proliferation of Mv1Lu cells. On the technique in general: Incorporation of labelled thymidine or its analogues reports DNA synthesis.
A further experiment concerns the target T1, TGF-β1 (Homo sapiens, UniProt P01137).
T1 construct: The mature processed cytokines produced from the members of the gene family show almost 100% amino acid identity between species; purchased Collaborative Research (Bedford, Mass.)
The experiment can be described thus: BIAcore surface plasmon resonance, binding to immobilized TGF-β1. The following applies: ligand TGF-β1. As for the experimental part: (§1) In this system, a purified protein serving as the ligand is covalently coupled to a carboxymethylated dextran surface, and binding molecules (i.e. the analyte) are passed in a fluid phase across the surface. Binding of the analyte to ligand causes a change in reflected light which is directly proportional to mass bound, and is measured in arbitrary response units (R.U.). Analyte-ligand binding is observed as both increasing response with time during the injection of analyte, and the difference in the position of the baseline before and after injection.
(§2) Schuster, R. V. Swanson, L. A. Alex, R. B. Bourret, M. I. Simon, Nature 365, 343 (1993). 1000 R.U. equals approximately 1 ng/mm^2. The running buffer was 20 mM Hepes (pH 7.2), 150 mM NaCl and the flow rate for all sensorgrams was 3 μl/min.
(§3) Regeneration of the surface to remove bound analyte was done by injection of 10 μl of 20 mM NaOH. To cyclize TRH1 peptides, the material was reduced with 5 mM DTT then brought to a final concentration of 60 μM in 25 mM ammonium acetate (pH 8.5). After stirring in the dark for 30 min at 20° C. with 30 mM potassium ferricyanide, the peptide was mixed with AG3-X4A resin (BioRad), filtered, lyophilization and desalted on a 50×2.5 cm column of Biogel P2 (Pharmacia) developed in water, and further purified by reverse phase HPLC.
(§4) Injection volumes were 36 μl for FIG. 2, 4 and 5 and 45 μl for FIG. 3. […] Protein concentrations in each experiment were (FIGS. 2 and 3), 2, 5, 10, 20, 30, 40 μM; (FIG. 4), 0.21, 0.31, 0.41, 0.62, 0.82, 1.24 μM; (FIG. 5), 0.22, 0.29, 0.44, 0.59, 0.88 μM. R.U. for the immobilized cytokine in each experiment was 2850 R.U. for FIGS. 2 and 3; 7450 R.U. for FIG. 4, and 5300 R.U., for FIG. 5 respectively.
(§5) Data was analyzed using the BIA-evaluation software (Pharmacia Biosensor). The association rate constant, kass, was calculated by first plotting the change in response with time versus response (i.e. dR/dT vs R). When the slope of the line from this graph is plotted versus analyte concentration (i.e d(dR/dT)/dR vs C), kass is obtained from the slope of the line. The dissociation rate constant, kdiss, is obtained during the decrease in response with time after analyte injection is discontinued. Specifically, kdiss was obtained from the slope of the line in a plot of ln(Rt1 /Rtn) vs time. The affinity constants were calculated from KD =kdiss /kass. Variance for kass is standard error of the linear regression plot, and for kdiss values are the mean ± range of 3 or more independent injections.
(In SPR one partner is held on a chip, and binding of the other changes the refractive index at the surface.)

The target in another experiment is T2, BMP-2 (Homo sapiens, UniProt P12643).
T2 construct: Genetics Institute, Cambridge, Mass; (gift)
T2 sequence (P12643 283-396): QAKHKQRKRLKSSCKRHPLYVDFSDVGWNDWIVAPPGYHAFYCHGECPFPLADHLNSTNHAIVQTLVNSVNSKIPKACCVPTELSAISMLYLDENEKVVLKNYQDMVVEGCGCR
The experiment is described as follows: BIAcore surface plasmon resonance, binding to immobilized BMP-2. The following applies: ligand BMP-2. As to the method:
as §1, §2, §3, §4, §5

The next experiment has as its target T3, TGF-β1 binding to TβRII (Homo sapiens, UniProt P01137).
T3 construct: The mature processed cytokines produced from the members of the gene family show almost 100% amino acid identity between species; purchased R&D Systems
The experiment is described as follows: Competition of TGF-β1 binding to immobilized TβRII (Quantikine ELISA). The following applies: 40 pM TGF-β1; fetuin 40 μM, TRH1 peptide from TβRII 20 μM; FIG. 14. As for the experimental part: Inhibition of TGF-β1 binding to TβRII was carried out using the Quantikine ELISA kit (R&D Systems). In particular, 96 well plates were pre-coated with the extracellular domain of TβRII. […] This was followed by a 5 minute incubation with the TβRII coated ELISA wells with shaking, washing as recommended, and a 1 hr incubation with the polyclonal anti-TGF-β1 antibody. Plates were developed as per the instructions, and determinations were made in triplicate.

The mark [1] stands for this setting: Table 2 (calculations repeated).

T1 sequence (P01137 279-390 limits assumed): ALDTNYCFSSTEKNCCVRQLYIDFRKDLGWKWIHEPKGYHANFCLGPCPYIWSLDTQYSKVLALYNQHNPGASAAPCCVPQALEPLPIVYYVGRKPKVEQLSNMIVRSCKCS
T3 sequence (P01137 279-390 limits assumed): as above
Method for Mv1Lu cells: Mv1Lu cells were seeded at 20,000 cells/well in a 96 well plate containing 0.2% FCS in α-MEM and incubated with the indicated concentrations of proteins for 18 hr. The cells were then pulsed with 8 μCi/ml methyl-^3 H-thymidine (NEN, Boston, Mass.) for 6 hr. Cells were trypsinized, harvested onto filtermats and counted in a β-Counter. Percent neutralization is defined as incorporation in the presence of 12 pM TGF-β1 alone set at 0%, and incorporation without additions as 100%.

With “Fetuin: Bovine fetal fetuin, glycoprotein obtained by ammonium sulfate fractionation of FCS and gel filtration (Sigma)”, the IC50 in the experiment on Mv1Lu cells was 8 µM. Further, the kass was 670 ± 400 M⁻¹ s⁻¹ in the experiment with TGF-β1 (Table 1); 670 M⁻¹ s⁻¹ with TGF-β1 (Table 1, listed as fetuin); 870 ± 270 M⁻¹ s⁻¹ with TGF-β1 (setting [1]); 1700 ± 300 M⁻¹ s⁻¹ with BMP-2 (Table 1); 1700 M⁻¹ s⁻¹ with BMP-2 (Table 1, listed as fetuin); 2400 ± 1200 M⁻¹ s⁻¹ in the experiment with BMP-2 (setting [1]). For the same substance, the kdiss in the experiment with TGF-β1 (Table 1, listed as fetuin) is 0.16 s⁻¹; with TGF-β1 (setting [1]) it was 0.0019 s⁻¹; in the experiment with BMP-2 (Table 1, listed as fetuin) it was 6.2e-05 s⁻¹; with BMP-2 (setting [1]), 6.5e-05 s⁻¹. In addition, the Kd was 2200 nM in the experiment with TGF-β1 (Table 2 (calculations repeated), KD = kdiss/kass, listed as b-Fetuin) and 27 nM with BMP-2 (Table 2 (calculations repeated), KD = kdiss/kass). In addition, the “inhibition of TGF-β1 binding to immobilized recombinant TβRII” value with TGF-β1 binding to TβRII is listed as “competitive inhibitors”.
